Results: article PMC5599116

Biological target: recombinant human CD62L (L-selectin) full extracellular region, native 1 signal sequence construct (human)
Test: SPR

Kd: 55 µM
Substance: mucin from porcine stomach type II (PSM-II) (natural protein)
